Read-outs that look alike come from different tables or passages of the source. One block for each binder: values may come before it.
Key:
[1] = target: T1, human CD47 expressed on the surface of cells (CHO-S-CD47 cells) (human, UniProt Q08722 19-323); experiment: FACS on CHO-S cells overexpressing human CD47, PE-conjugated anti-human Fc detection, MFI
T1 construct: whole, on cells; also called CHO-S cells overexpressing CD47; CHO-CD47
Procedure: (§1) The cell suspension was centrifuged at 400 g on a centrifuge for 5 minutes to remove the cell medium. […] The cell suspension was centrifuged at 400 g for 5 minutes, and then the supernatant was removed, and the cells were washed with PBS to remove the unbound antibodies. The obtained cell suspension was centrifuged at 400 g for 5 minutes to remove PBS. 100 μL of the solution of PE-conjugated anti-human Fc antibody (Jackson Immuno Research) diluted at a ratio of 1:200 was added to each well, and the cells were incubated in the dark on the ice for 30 minutes. Then the cell suspension was centrifuged at 400 g for 5 minutes and the supernatant was removed. The cells were washed with PBS to remove the unbound PE-conjugated anti-human Fc antibody. The cells were resuspended with 100 μL of PBS, and the binding of the antibodies to cells was assayed by FACS.

[2] = target: T2, human LAG-3 expressed on the surface of cells (293-LAG-3 cells) (human, UniProt P18627 23-525); experiment: FACS on HEK293 cells overexpressing human LAG-3, PE-conjugated anti-human Fc detection, MFI
T2 construct: whole, on cells; also called HEK293 cells overexpressing LAG-3; CD223
T2 sequence (looked up): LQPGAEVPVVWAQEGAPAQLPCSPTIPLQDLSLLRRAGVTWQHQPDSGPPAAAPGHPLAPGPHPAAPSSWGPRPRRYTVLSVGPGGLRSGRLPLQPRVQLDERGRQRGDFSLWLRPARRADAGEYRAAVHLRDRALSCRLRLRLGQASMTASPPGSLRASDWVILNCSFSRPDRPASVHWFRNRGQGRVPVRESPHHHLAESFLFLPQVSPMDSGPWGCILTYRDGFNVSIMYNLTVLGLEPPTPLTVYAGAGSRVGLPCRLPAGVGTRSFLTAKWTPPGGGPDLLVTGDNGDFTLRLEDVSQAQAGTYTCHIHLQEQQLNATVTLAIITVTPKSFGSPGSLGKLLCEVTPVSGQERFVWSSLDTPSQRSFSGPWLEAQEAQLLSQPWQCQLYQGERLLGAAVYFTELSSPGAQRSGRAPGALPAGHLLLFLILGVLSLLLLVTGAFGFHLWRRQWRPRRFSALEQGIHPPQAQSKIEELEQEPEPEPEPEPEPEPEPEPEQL

[3] = target: T3, human 4-1BB expressed on the surface of cells (CHO-S-4-1BB cells) (human, UniProt Q07011 24-255); experiment: FACS on CHO-S cells overexpressing human 4-1BB, PE-conjugated anti-human Fc detection, MFI
T3 construct: whole, on cells; also called CHO-S cells overexpressing 4-1BB; CD137
T3 sequence (Q07011 24-255): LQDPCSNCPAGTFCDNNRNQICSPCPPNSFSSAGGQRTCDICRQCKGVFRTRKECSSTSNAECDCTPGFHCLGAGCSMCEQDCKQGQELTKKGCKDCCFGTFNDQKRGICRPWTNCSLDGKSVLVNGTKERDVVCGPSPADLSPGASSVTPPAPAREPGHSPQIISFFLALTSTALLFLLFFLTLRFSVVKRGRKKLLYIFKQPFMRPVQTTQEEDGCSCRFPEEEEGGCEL

[4] = target: T4, tumor cells H292 (ATCC), co-incubated with human red blood cells; experiment: flow cytometry; CFSE-labelled H292 cells co-incubated 1:20 with human red blood cells; antibody 0.123 nM
T4 construct: also called H292 cells
Procedure: (§2) Tumor cells H292 (ATCC) were fluorescently labeled with fluorochrome CFSE according to the instructions of CellTrace™ CFSE Cell Proliferation Kit (Invitrogen, catalog number: C34554). The labeled tumor cells were co-cultured with the aforementioned isolated human red blood cells at a ratio of 1:20 in terms of cell number, and meanwhile, tested antibody solutions of different concentrations were added. The cells were incubated at 4° C. for 30 min. […] The cells were washed at least twice with PBS and analyzed by flow cytometry.

[5] = target: T1, human CD47 expressed on the surface of …; experiment: FACS on CHO-S cells overexpressing human CD47; antibody sample after 30 days at 40 C
Procedure: as §1

h CD47 (Acrobiosystems) = target: T5, h CD47 (Acrobiosystems) (human, UniProt Q08722 19-139); experiment: ForteBio Octet BLI; antibody loaded on AHC sensor, h CD47 100 nM in solution
T5 construct: Bought soluble antigen; also called CD47 protein in solution
Procedure: (§3) The anti-human IgG Fc biosensor AHC was immersed in each well containing the antibody solution, and immersed at room temperature for 600 seconds to load the samples. The sensor was then washed in SD buffer until it returned to the baseline, and then immersed in a well containing 100 μL of the antigen solution to monitor the association of the antibody with the antigen. The sensor was then transferred to a well containing 100 ul of SD buffer to monitor the antibody dissociation. The rotation speed was 400 rpm and the temperature was 30° C. The background-corrected association and dissociation curves were plotted by the Octet analysis software (ForteBio) to generate the association (k_{∞}) rate constant and dissociation (kdis) rate constant, which are then used to calculate the equilibrium dissociation constant (KD).

[6] = target: T4, tumor cells H292 (ATCC), co-incubated …; experiment: flow cytometry; CFSE-labelled H292 cells co-incubated 1:20 with human red blood cells; antibody 0.370 nM
Procedure: (§4) The mixture was then gently added to 4 tubes each with 12.5 ml of FiColl (Thermo). The samples were centrifuged at 400 g for 30 min with zero deceleration. The upper serum and PBMC were removed to obtain red blood cells in the lowest layer.
as §2

[7] = target: T4, tumor cells H292 (ATCC), co-incubated …; experiment: flow cytometry; CFSE-labelled H292 cells co-incubated 1:20 with human red blood cells; antibody 10.000 nM
Procedure: as §4, §2

[8] = target: T1, human CD47 expressed on the surface of …; experiment: FACS on CHO-S cells overexpressing human CD47; antibody sample of day 0
[9] = target: T4, tumor cells H292 (ATCC), co-incubated …; experiment: flow cytometry; CFSE-labelled H292 cells co-incubated 1:20 with human red blood cells; antibody 3.333 nM
Procedure: as §4, §2

[10] = target: T4, tumor cells H292 (ATCC), co-incubated …; experiment: flow cytometry; CFSE-labelled H292 cells co-incubated 1:20 with human red blood cells; antibody 0.041 nM
Procedure: as §2

[11] = target: T4, tumor cells H292 (ATCC), co-incubated …; experiment: flow cytometry; CFSE-labelled H292 cells co-incubated 1:20 with human red blood cells; antibody 1.111 nM
Procedure: as §2

[12] = target: T4, tumor cells H292 (ATCC), co-incubated …; experiment: flow cytometry; CFSE-labelled H292 cells co-incubated 1:20 with human red blood cells; antibody 0.014 nM
Procedure: as §4, §2

[13] = target: T6, human PD-L1 expressed on the surface of cells (CHO-S-PD-L1 cells) (human, UniProt Q9NZQ7 19-290); experiment: FACS on CHO-S cells overexpressing human PD-L1, PE-conjugated anti-human Fc detection, MFI
T6 construct: whole, on cells; also called CHO-S cells overexpressing PD-L1; PD-L1 aAPC/CHO-K1 cells
Procedure: (§5) In short, CHO-S-PD-L1 cells were counted, and the cell suspension was diluted to 1×10⁶ cells/ml with cell medium, and then added to a U-bottom 96-well plate at 100 μl/well. The cell suspension was centrifuged at 400 g on a centrifuge for 5 minutes to remove the cell medium. […] The cell suspension was centrifuged at 400 g for 5 minutes, and then the supernatant was removed, and the cells were washed with PBS to remove the unbound antibodies. The obtained cell suspension was centrifuged at 400 g for 5 min to remove PBS. 100 μl of the solution of PE-conjugated anti-human Fc antibody (Jackson Immuno Research) diluted at a ratio of 1:200 was added to each well, and the cells were incubated in the dark on the ice for 30 min. Then the cell suspension was centrifuged at 400 g for 5 min and the supernatant was removed. The cells were washed with PBS to remove the unbound PE-conjugated anti-human Fc antibody. The cells were resuspended with 100 μl of PBS, and the binding of the antibodies to cells was assayed by FACS.

[14] = target: T7, rh PD-L1 (Acrobiosystems) (human, UniProt Q9NZQ7 19-238); experiment: ForteBio Octet BLI; antibody loaded on AHC sensor, antigen 100 nM in solution; note: N.B: Not detectable
T7 construct: Bought soluble antigen; also called PD-L1 protein in solution
Procedure: as §3

[15] = target: T6, human PD-L1 expressed on the surface of …; experiment: FACS on CHO-S cells overexpressing human PD-L1, PE-conjugated anti-human Fc detection, MFI; remark: listed apart in the source
Procedure: as §5

B3: anti-4-1BB antibody BMS-663513 (antibody, V domains shown)
VH: QVQLQQWGAGLLKPSETLSLTCAVYGGSFSGYYWSWIRQSPEKGLEWIGEINHGGYVTYNPSLESRVTISVDTSKNQFSLKLSSVTAADTAVYYCARDYGPGNYDWYFDLWGRGTLVTVSS
VL: EIVLTQSPATLSLSPGERATLSCRASQSVSSYLAWYQQKPGQAPRLLIYDASNRATGIPARFSGSGSGTDFTLTISSLEPEDFAVYYCQQRSNWPPALTFGGGTKVEIK
notes: also called parent antibody (anti-4-1BB)
EC50 (read off the curve) [3]: ~1 nM

B4: anti-CD47/PD-L1 bispecific antibody Kh2NF-PC (bispecific antibody, human IgG1, kappa, L234A L235A)
heavy: not shown
light: DIQMTQSPSSVSASVGDRVTITCRASQGISRWLAWYQQKPGKAPKLLIYAASSLQSGVPSRFSGSGSGTDFTLTISSLQPEDFATYYCQQTVSFPITFGGGTKVEIKRTVAAPSVFIFPPSDEQLKSGTASVVCLLNNFYPREAKVQWKVDNALQSGNSQESVTEQDSKDSTYSLSSTLTLSKADYEKHKVYACEVTHQGLSSPVTKSFNRGEC
chain: QVQLQESGGGLVQPGGSLRLSCAASAYTISRNSMGWFRQAPGKGLEGVAAIESDGSTSYSDSVKGRFTISLDNSKNTLYLEMNSLRAEDTAVYYCAAPKVGLGPRTALGHLAFMTLPALNYWGQGTLVTVSSGGGGSGGGGSGGGGSGGGGSQVQLQESGGGLVQPGGSLRLSCAASAYTISRNSMGWFRQAPGKGLEGVAAIESDGSTSYSDSVKGRFTISLDNSKNTLYLEMNSLRAEDTAVYYCAAPKVGLGPRTALGHLAFMTLPALNYWGQGTLVTVSSDKTHTCPPCPAPEAAGGPSVFLFPPKPKDTLMISRTPEVTCVVVDVSHEDPEVKFNWYVDGVEVHNAKTKPREEQYNSTYRVVSVLTVLHQDWLNGKEYKCKVSNKALPAPIEKTISKAKGQPREPQVCTLPPSRDELTKNQVSLSCAVKGFYPSDIAVEWESNGQPENNYKTTPPVLDSDGSFFLVSKLTVDKSRWQQGNVFSCSVMHEALHNHYTQKSLSLSPG
notes: Triple-chain antibody (1+2 format)
proportion of antibody binding to H292 cells [4]: 88.5%
EC50 (read off the curve) [5]: ~3 nM
Kd (h CD47 (Acrobiosystems)): 1.31 nM
koff (h CD47 (Acrobiosystems)): 0.00155 s⁻¹
kon (h CD47 (Acrobiosystems)): 1.18e+06 M⁻¹ s⁻¹
proportion of antibody binding to H292 cells [6]: 44.5%
proportion of antibody binding to H292 cells [7]: 12.5%
EC50 (read off the curve) [8]: ~2 nM
EC50 (read off the curve) [1]: ~2 nM
proportion of antibody binding to H292 cells [9]: 12.1%
proportion of antibody binding to H292 cells [10]: 82%
proportion of antibody binding to H292 cells [11]: 23%
proportion of antibody binding to H292 cells [12]: 14.9%

B5: anti-CD47/PD-L1 bispecific antibody Kh2NF-PC-NL (bispecific antibody, human IgG1, kappa, L234A L235A)
heavy: not shown
light: B4 light
chain: QVQLQESGGGLVQPGGSLRLSCAASAYTISRNSMGWFRQAPGKGLEGVAAIESDGSTSYSDSVKGRFTISLDNSKNTLYLEMNSLRAEDTAVYYCAAPKVGLGPRTALGHLAFMTLPALNYWGQGTLVTVSSQVQLQESGGGLVQPGGSLRLSCAASAYTISRNSMGWFRQAPGKGLEGVAAIESDGSTSYSDSVKGRFTISLDNSKNTLYLEMNSLRAEDTAVYYCAAPKVGLGPRTALGHLAFMTLPALNYWGQGTLVTVSSDKTHTCPPCPAPEAAGGPSVFLFPPKPKDTLMISRTPEVTCVVVDVSHEDPEVKFNWYVDGVEVHNAKTKPREEQYNSTYRVVSVLTVLHQDWLNGKEYKCKVSNKALPAPIEKTISKAKGQPREPQVCTLPPSRDELTKNQVSLSCAVKGFYPSDIAVEWESNGQPENNYKTTPPVLDSDGSFFLVSKLTVDKSRWQQGNVFSCSVMHEALHNHYTQKSLSLSPG
notes: Triple-chain antibody without a linker between the two VHH; Fc with LALA and knob-in-hole mutations
proportion of antibody binding to H292 cells [4]: 83.2%
Kd (h CD47 (Acrobiosystems)): 1.07 nM
koff (h CD47 (Acrobiosystems)): 0.00128 s⁻¹
kon (h CD47 (Acrobiosystems)): 1.19e+06 M⁻¹ s⁻¹
proportion of antibody binding to H292 cells [6]: 61.6%
proportion of antibody binding to H292 cells [7]: 11.3%
EC50 (read off the curve) [8]: ~3 nM
EC50 (read off the curve) [1]: ~2 nM
proportion of antibody binding to H292 cells [9]: 13.2%
proportion of antibody binding to H292 cells [10]: 46.3%
proportion of antibody binding to H292 cells [11]: 41%
proportion of antibody binding to H292 cells [12]: 1.41%

B6: anti-4-1BB/PD-L1 bispecific antibody Kh2NF-P4 (bispecific antibody, human IgG1, kappa, L234A L235A)
heavy: not shown
light: not shown
chain: B4 chain
notes: Triple-chain antibody; Fc with LALA and knob-in-hole mutations
EC50 (read off the curve) [13]: ~2 nM
EC50 (read off the curve) [3]: ~5 nM

Next, values leading:

binding result [1]: no binding (tested: about 300 nM)
B1: IgG1 Control (antibody, V domains shown)
VH: EVRLLESGGGLVQPGGSLRLSCAASGFTFSNYAMGWVRQAPGKGLEWVSAISGSGGSTYYADSVKGRFTTSRDDSKNALYLQMNSLRAEDTAVYYCARGGPGWYAADVWGQGTTVTVSS
VL: DIQMTQSPSSLSASVGDRVTITCRASQSISSYLNWYQQKPGKAPKLLIYAASSLQSGVPSRFSGSGSGTDFTLTISSLQPEDFATYYCQQADLPAFAFGGGTKVEIKR
notes: also called IgG1 negative control antibody

EC50 (read off the curve) [2]: ~0.5 nM
B2: anti-LAG-3 antibody ADI-31853 (antibody, V domains shown)
VH: QLQLQESGPGLVKPSETLSLTCTVSGGSIYSESYYWGWIRQPPGKGLEWIGSIVYSGYTYYNPSLKSRVTISVDTSKNQFSLKLSSVTAADTAVYYCARVRTWDAAFDIWGQGTMVTVSS
VL: DIQMTQSPSSLSASVGDRVTITCQASQDISNYLNWYQQKPGKAPKLLIYDASNLETGVPSRFSGSGSGTDFTFTISSLQPEDIATYYCQQVLELPPWTFGGGTKVEIK
notes: also called parent antibody (anti-LAG-3)

binding result [14]: no binding (tested: 100 nM)
proportion of antibody binding to H292 cells [4]: 5.74%
Kd (h CD47 (Acrobiosystems)): 2.32 nM
koff (h CD47 (Acrobiosystems)): 0.0018 s⁻¹
kon (h CD47 (Acrobiosystems)): 774000 M⁻¹ s⁻¹
proportion of antibody binding to H292 cells [6]: 14.4%
proportion of antibody binding to H292 cells [7]: 3.9%
EC50 (read off the curve) [1]: ~1 nM
proportion of antibody binding to H292 cells [9]: 8.42%
proportion of antibody binding to H292 cells [10]: 17.7%
proportion of antibody binding to H292 cells [11]: 6.15%
proportion of antibody binding to H292 cells [12]: 3.59%
B7: anti-CD47 antibody ADI-29341 (antibody, V domains shown)
VH: QVQLQESGPGLVKPSETLSLTCTVSGGSIEHYYWSWIRQPPGKGLEWIGYIYYSGSTNYNPSLKSRVTISVDTSKNQFSLKLSSVTAADTAVYYCARGKTGSAAWGQGTLVTVSS
VL: DIQMTQSPSSVSASVGDRVTITCRASQGISRWLAWYQQKPGKAPKLLIYAASSLQSGVPSRFSGSGSGTDFTLTISSLQPEDFATYYCQQTVSFPITFGGGTKVEIK
notes: captured on an anti-human IgG Fc sensor; also called parent antibody (anti-CD47)

EC50 (read off the curve) [15]: ~1 nM
EC50 (read off the curve) [2]: ~1 nM
B8: anti-LAG-3/PD-L1 bispecific antibody Kh2NF-PL (bispecific antibody, human IgG1, kappa, L234A L235A)
heavy: not shown
light: not shown
chain: B5 chain
notes: as for B6
